Tested on: Escherichia coli TOP10
Test: shrunken log2 fold change of peptide-encoding DNA abundance (4.5 h post-induction vs induction); higher = less antimicrobial activity (less host growth inhibition)
Details: time post-induction: 4.5 h; library: site-saturation at positions 5, 18, 19, 20
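Note: peptides expressed intracellularly from a pBAD plasmid library in pooled LB shake-flask culture, induced with 0.3% L-arabinose, DNA abundance read by NGS, three biological replicates, DESeq2 with apeglm shrinkage.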

For RRIRRRPPRLPRPRPRPRLPPRP, the “shrunken log2 fold change” value was 0.663.

For RRIRRRPPRLPRPRPRPRMRPRP, the “shrunken log2 fold change” value was 0.744.

With RRIRRRPPRLPRPRPRPRNIPRP the “shrunken log2 fold change” value was -0.0349.

With RRIRRRPPRLPRPRPRPRNLPRP the “shrunken log2 fold change” value was -0.0397.

RRIRRRPPRLPRPRPRPRPLPRP was tested, and the “shrunken log2 fold change” value was 0.559.

For RRIRRRPPRLPRPRPRPRPRPRP, the “shrunken log2 fold change” value was 0.86.

For RRIRRRPPRLPRPRPRPRPVPRP, the “shrunken log2 fold change” value was 0.882.

In the case of RRIRRRPPRLPRPRPRPRQRPRP, the “shrunken log2 fold change” value is reported as 0.636.

For RRIRRRPPRLPRPRPRPRQTPRP, the “shrunken log2 fold change” value was 0.0881.

In the case of RRIRRRPPRLPRPRPRPRRIPRP, the “shrunken log2 fold change” value is reported as 0.251.

RRIRRRPPRLPRPRPRPRRMPRP was tested, and the “shrunken log2 fold change” value was 0.206.

With RRIRRRPPRLPRPRPRPRTLPRP the “shrunken log2 fold change” value was 0.311.

In the case of RRIRRRPPRLPRPRPRPRVTPRP, the “shrunken log2 fold change” value is reported as 0.766.

For RRIRRRPPRLPRPRPRPRVWPRP, the “shrunken log2 fold change” value was 0.686.

With RRIRRRPPRLPRPRPRPRWMPRP the “shrunken log2 fold change” value was 0.25.

RRIRRRPPRLPRPRPRPRWQPRP was tested, and the “shrunken log2 fold change” value was 0.636.

With RRIRRRPPRLPRPRPRPSCRPRP the “shrunken log2 fold change” value was 0.0338.

With RRIRRRPPRLPRPRPRPSENPRP the “shrunken log2 fold change” value was -0.0437.

For RRIRRRPPRLPRPRPRPSFEPRP, the “shrunken log2 fold change” value was 0.234.

For RRIRRRPPRLPRPRPRPSGIPRP, the “shrunken log2 fold change” value was -0.0479.

For RRIRRRPPRLPRPRPRPSGVPRP, the “shrunken log2 fold change” value was -0.181.

RRIRRRPPRLPRPRPRPSHKPRP was tested, and the “shrunken log2 fold change” value was -0.0351.

For RRIRRRPPRLPRPRPRPSIFPRP, the “shrunken log2 fold change” value was -0.192.

For RRIRRRPPRLPRPRPRPSIMPRP, the “shrunken log2 fold change” value was -0.213.

With RRIRRRPPRLPRPRPRPSKTPRP the “shrunken log2 fold change” value was -0.0865.

RRIRRRPPRLPRPRPRPSLSPRP was tested, and the “shrunken log2 fold change” value was 2.85.

In the case of RRIRRRPPRLPRPRPRPSMNPRP, the “shrunken log2 fold change” value is reported as -0.467.

For RRIRRRPPRLPRPRPRPSNEPRP, the “shrunken log2 fold change” value was -0.105.

For RRIRRRPPRLPRPRPRPSNFPRP, the “shrunken log2 fold change” value was -0.177.

With RRIRRRPPRLPRPRPRPSPCPRP the “shrunken log2 fold change” value was 0.155.

With RRIRRRPPRLPRPRPRPSPQPRP the “shrunken log2 fold change” value was 1.96.

RRIRRRPPRLPRPRPRPSPSPRP was tested, and the “shrunken log2 fold change” value was 0.386.

In the case of RRIRRRPPRLPRPRPRPSRGPRP, the “shrunken log2 fold change” value is reported as 0.432.

In the case of RRIRRRPPRLPRPRPRPSRPPRP, the “shrunken log2 fold change” value is reported as 0.464.

In the case of RRIRRRPPRLPRPRPRPSRVPRP, the “shrunken log2 fold change” value is reported as 0.553.

For RRIRRRPPRLPRPRPRPSTWPRP, the “shrunken log2 fold change” value was 0.00308.

RRIRRRPPRLPRPRPRPSVPPRP was tested, and the “shrunken log2 fold change” value was 0.063.

For RRIRRRPPRLPRPRPRPSWDPRP, the “shrunken log2 fold change” value was -0.102.

In the case of RRIRRRPPRLPRPRPRPSWLPRP, the “shrunken log2 fold change” value is reported as 0.202.

RRIRRRPPRLPRPRPRPSWRPRP was tested, and the “shrunken log2 fold change” value was 0.355.

For RRIRRRPPRLPRPRPRPSYAPRP, the “shrunken log2 fold change” value was 0.0616.

With RRIRRRPPRLPRPRPRPSYRPRP the “shrunken log2 fold change” value was -0.142.

RRIRRRPPRLPRPRPRPSYTPRP was tested, and the “shrunken log2 fold change” value was -0.227.

With RRIRRRPPRLPRPRPRPTAPPRP the “shrunken log2 fold change” value was 0.583.

In the case of RRIRRRPPRLPRPRPRPTAYPRP, the “shrunken log2 fold change” value is reported as 0.676.

In the case of RRIRRRPPRLPRPRPRPTCDPRP, the “shrunken log2 fold change” value is reported as 0.502.

In the case of RRIRRRPPRLPRPRPRPTFEPRP, the “shrunken log2 fold change” value is reported as 0.358.

RRIRRRPPRLPRPRPRPTFMPRP was tested, and the “shrunken log2 fold change” value was 0.284.

For RRIRRRPPRLPRPRPRPTKHPRP, the “shrunken log2 fold change” value was 0.124.

For RRIRRRPPRLPRPRPRPTKWPRP, the “shrunken log2 fold change” value was 0.0371.

With RRIRRRPPRLPRPRPRPTMMPRP the “shrunken log2 fold change” value was 0.167.

RRIRRRPPRLPRPRPRPTMTPRP was tested, and the “shrunken log2 fold change” value was 0.487.

In the case of RRIRRRPPRLPRPRPRPTPRPRP, the “shrunken log2 fold change” value is reported as 2.37.

RRIRRRPPRLPRPRPRPTQSPRP was tested, and the “shrunken log2 fold change” value was 0.804.

For RRIRRRPPRLPRPRPRPTQYPRP, the “shrunken log2 fold change” value was 0.571.

In the case of RRIRRRPPRLPRPRPRPTTEPRP, the “shrunken log2 fold change” value is reported as 0.0681.

With RRIRRRPPRLPRPRPRPTTHPRP the “shrunken log2 fold change” value was 0.306.

RRIRRRPPRLPRPRPRPTVAPRP was tested, and the “shrunken log2 fold change” value was 0.699.

With RRIRRRPPRLPRPRPRPTWIPRP the “shrunken log2 fold change” value was 0.53.

RRIRRRPPRLPRPRPRPTYQPRP was tested, and the “shrunken log2 fold change” value was 0.112.

With RRIRRRPPRLPRPRPRPVAYPRP the “shrunken log2 fold change” value was 0.263.

RRIRRRPPRLPRPRPRPVCDPRP was tested, and the “shrunken log2 fold change” value was 0.621.

For RRIRRRPPRLPRPRPRPVCGPRP, the “shrunken log2 fold change” value was 0.75.

For RRIRRRPPRLPRPRPRPVDYPRP, the “shrunken log2 fold change” value was -0.0118.

For RRIRRRPPRLPRPRPRPVEHPRP, the “shrunken log2 fold change” value was 0.0989.

RRIRRRPPRLPRPRPRPVFMPRP was tested, and the “shrunken log2 fold change” value was 0.251.

In the case of RRIRRRPPRLPRPRPRPVFTPRP, the “shrunken log2 fold change” value is reported as 0.188.

With RRIRRRPPRLPRPRPRPVGKPRP the “shrunken log2 fold change” value was -0.105.

RRIRRRPPRLPRPRPRPVKCPRP was tested, and the “shrunken log2 fold change” value was 0.23.

For RRIRRRPPRLPRPRPRPVKWPRP, the “shrunken log2 fold change” value was 0.111.

With RRIRRRPPRLPRPRPRPVLEPRP the “shrunken log2 fold change” value was 0.599.

With RRIRRRPPRLPRPRPRPVLLPRP the “shrunken log2 fold change” value was 0.103.

For RRIRRRPPRLPRPRPRPVLNPRP, the “shrunken log2 fold change” value was 0.0825.

With RRIRRRPPRLPRPRPRPVLSPRP the “shrunken log2 fold change” value was 0.0336.

In the case of RRIRRRPPRLPRPRPRPVLYPRP, the “shrunken log2 fold change” value is reported as -0.142.

With RRIRRRPPRLPRPRPRPVMDPRP the “shrunken log2 fold change” value was -0.0641.

For RRIRRRPPRLPRPRPRPVMIPRP, the “shrunken log2 fold change” value was 0.224.

RRIRRRPPRLPRPRPRPVPMPRP was tested, and the “shrunken log2 fold change” value was 0.452.

RRIRRRPPRLPRPRPRPVPYPRP was tested, and the “shrunken log2 fold change” value was -0.195.

With RRIRRRPPRLPRPRPRPVRMPRP the “shrunken log2 fold change” value was 0.497.

With RRIRRRPPRLPRPRPRPVTDPRP the “shrunken log2 fold change” value was 0.0723.

For RRIRRRPPRLPRPRPRPVTFPRP, the “shrunken log2 fold change” value was 0.00522.

With RRIRRRPPRLPRPRPRPVVEPRP the “shrunken log2 fold change” value was 0.339.

With RRIRRRPPRLPRPRPRPVVHPRP the “shrunken log2 fold change” value was -0.157.

For RRIRRRPPRLPRPRPRPVVKPRP, the “shrunken log2 fold change” value was -0.0155.

For RRIRRRPPRLPRPRPRPVWWPRP, the “shrunken log2 fold change” value was 0.703.

In the case of RRIRRRPPRLPRPRPRPWAHPRP, the “shrunken log2 fold change” value is reported as 0.0718.

In the case of RRIRRRPPRLPRPRPRPWCCPRP, the “shrunken log2 fold change” value is reported as -0.0571.

In the case of RRIRRRPPRLPRPRPRPWDNPRP, the “shrunken log2 fold change” value is reported as 0.0234.

With RRIRRRPPRLPRPRPRPWEDPRP the “shrunken log2 fold change” value was 0.0594.

With RRIRRRPPRLPRPRPRPWEKPRP the “shrunken log2 fold change” value was 0.0936.

With RRIRRRPPRLPRPRPRPWEVPRP the “shrunken log2 fold change” value was 0.125.

RRIRRRPPRLPRPRPRPWFEPRP was tested, and the “shrunken log2 fold change” value was 0.0607.

With RRIRRRPPRLPRPRPRPWFVPRP the “shrunken log2 fold change” value was 0.214.

RRIRRRPPRLPRPRPRPWFWPRP was tested, and the “shrunken log2 fold change” value was 1.76.

With RRIRRRPPRLPRPRPRPWHCPRP the “shrunken log2 fold change” value was -0.18.

With RRIRRRPPRLPRPRPRPWHNPRP the “shrunken log2 fold change” value was -0.279.

RRIRRRPPRLPRPRPRPWHWPRP was tested, and the “shrunken log2 fold change” value was 0.183.

With RRIRRRPPRLPRPRPRPWLHPRP the “shrunken log2 fold change” value was 0.333.

For RRIRRRPPRLPRPRPRPWLRPRP, the “shrunken log2 fold change” value was -0.103.

With RRIRRRPPRLPRPRPRPWLVPRP the “shrunken log2 fold change” value was -0.0986.

RRIRRRPPRLPRPRPRPWMWPRP was tested, and the “shrunken log2 fold change” value was 0.0918.

For RRIRRRPPRLPRPRPRPWNDPRP, the “shrunken log2 fold change” value was -0.345.

RRIRRRPPRLPRPRPRPWNLPRP was tested, and the “shrunken log2 fold change” value was -0.269.

For RRIRRRPPRLPRPRPRPWNMPRP, the “shrunken log2 fold change” value was -0.479.

In the case of RRIRRRPPRLPRPRPRPWPQPRP, the “shrunken log2 fold change” value is reported as 0.101.

For RRIRRRPPRLPRPRPRPWQLPRP, the “shrunken log2 fold change” value was 0.144.

RRIRRRPPRLPRPRPRPWRPPRP was tested, and the “shrunken log2 fold change” value was 0.734.

RRIRRRPPRLPRPRPRPWRRPRP was tested, and the “shrunken log2 fold change” value was 0.358.
